One experiment deals with rabbits. Description: Enzyme ImmunoAssay titers of polyclonal antibodies raised in rabbits to a Megi peptide. In kind it is in vivo, rabbit. The conditions noted are these: for 50% titer: test bleed 31 days after day 0 and day 21 boosts, KLH-conjugated peptide, unconjugated screening antigen. As to the method:
Data sets were taken from the bleed after the day 0 and day 21 boosts. The animals were injected with a peptide of SEQ ID NO: 4 and were conjugated to keyhole limpet hemocyanin (KLH). The screening antigen is not conjugated to KLH so that the response solely to the peptide and not to KLH can be identified. The 50% titer is a dilution value where the signal is half-way between the peak and the baseline, so the higher the dilution value (titer), the greater the response to the antigen. The positive control is an internal control that was generated from ovalbumin antibodies in rabbit. At a dilution of 1:759,000, the absorbance fell within a range of 0.45 to 0.9. In the case of the response to SEQ ID NO: 4, there was a high response. The data shown in FIG. 9 from the prebleed sample obtained on Dec. 8, 2010 was <100 (negative) for both rabbits, CD 153 and CD 154.

The target in experiment [1] is T1, Megi (Homo sapiens, UniProt O43909).
T1 construct: Megi protein is expressed in human pancreatic cancer cells; endogenous in cells
T1 sequence (O43909 1-919): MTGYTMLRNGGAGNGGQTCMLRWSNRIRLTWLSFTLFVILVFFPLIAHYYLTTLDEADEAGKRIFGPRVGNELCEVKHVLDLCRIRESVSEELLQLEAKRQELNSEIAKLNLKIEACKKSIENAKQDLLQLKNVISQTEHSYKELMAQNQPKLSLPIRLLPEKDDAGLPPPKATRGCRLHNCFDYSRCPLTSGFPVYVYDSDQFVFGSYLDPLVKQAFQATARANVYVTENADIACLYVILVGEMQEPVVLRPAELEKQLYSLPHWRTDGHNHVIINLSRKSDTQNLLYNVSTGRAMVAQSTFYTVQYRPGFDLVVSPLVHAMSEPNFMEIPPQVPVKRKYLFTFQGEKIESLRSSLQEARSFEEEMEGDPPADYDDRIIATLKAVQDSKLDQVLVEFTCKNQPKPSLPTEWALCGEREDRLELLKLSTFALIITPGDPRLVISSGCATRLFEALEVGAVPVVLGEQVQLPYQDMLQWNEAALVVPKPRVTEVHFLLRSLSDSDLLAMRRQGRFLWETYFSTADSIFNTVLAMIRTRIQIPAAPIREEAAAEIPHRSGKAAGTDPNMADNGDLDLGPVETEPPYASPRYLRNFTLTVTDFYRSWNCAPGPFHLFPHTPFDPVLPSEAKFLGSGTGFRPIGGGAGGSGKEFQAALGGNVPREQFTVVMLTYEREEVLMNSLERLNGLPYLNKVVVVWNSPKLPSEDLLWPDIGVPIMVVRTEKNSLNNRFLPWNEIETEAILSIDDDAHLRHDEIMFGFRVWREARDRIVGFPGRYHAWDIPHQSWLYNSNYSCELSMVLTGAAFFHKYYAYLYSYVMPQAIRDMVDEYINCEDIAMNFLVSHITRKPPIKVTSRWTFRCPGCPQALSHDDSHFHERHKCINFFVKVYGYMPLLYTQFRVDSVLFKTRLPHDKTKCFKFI
Description: Western blot analysis of Megi in cytosolic and nuclear fractions of adenocarcinoma cells. In kind it is cell-based. The note with it: Reg peptide 167 nM; 30 minutes; vs cells not treated with Reg peptide; FIG. 7g vs 7e. As for the experimental part:
The Western blot analysis of cytosolic and nuclear fractions isolated at the indicated time points with Reg peptide accelerating time of Megi translocation from the cell surface membrane to nucleus. Adenocarcinoma cells were seeded in T75 flasks in Dulbecco's Modified Eagle media containing 10% fetal bovine serum. The cells were incubated at […], 5% CO2 for 24 hours and then treated with Reg peptide at the final concentration of 167 nM. This treatment was performed once a day for four days. On the fifth day the cells were broken to obtain the cell lysates. In these cell extracts the total protein levels were determined, and 50 micrograms of total protein, were used to perform the western blot analysis. The samples containing 50 micrograms of proteins were diluted in loading buffer and loaded into each well of the gel. For gels run under reducing conditions, buffer also contained 5% of the reducing agent beta-mercaptoethanol
Analyses were performed from cytoplasmic extracts were obtained in 10 mM HEPES (pH 8.0), 1 mM EDTA, 1.5 mM MgCl2, 10 mM KCl, 0.5 mM DTT, 200 mM sucrose and 0.5% Nonidet P-40. Nuclear extracts were obtained in 20 mM HEPES (pH 7.9), 0.75 mM MgCl2, 210 mM NaCl, 50 mM KCl, 1 mM EDTA, 10% glycerol, and 0.5 mM of dithiothreitol. […] Secondary signals were developed with chemiluminescence substrate and analyzed by autoradiography.
In general terms: Immunoblotting shows a protein as a band on a membrane.

Experiment [2] concerns the target T1, Megi. Description: Cy3 immunofluorescent staining of Megi in human pancreatic adenocarcinoma cells. The conditions noted are these: 167 nM Reg peptide added to human pancreatic adenocarcinoma cells; FIG. 6b vs 6a. The format is cell-based. As for the experimental part: To determine the presence of Megi via immunofluorescence, a continuous tumor-cell line from a human carcinoma of the exocrine pancreas were cultured in Dulbecco's Modified Eagle Medium containing 4.5 g/L glucose, 1:5 g/L sodium bicarbonate, 4 mM L-glutamine, and 10% fetal bovine serum. Cells were seeded at 50% confluence in standard growth medium. Twenty-four hours after seeding, cells were differentiated in serum free medium. Cells were mounted on cover slips and fixed in 4% paraformaldehyde and permeabilized with 0:2% Triton X-100. After being washed and blocked, cells were incubated with rabbit polyclonal anti-Megi antibody and a CY3-conjugated goat-anti-rabbit labeled fluorescent antibody. Antibodies were used at a 1:200 dilution. Coverslips were mounted and staining was analyzed on a Zeiss Axiovert 220M microscope powered by Axiovision 4.0 software with Z-stack acquisition, 3D-deconvolution, and 4D rendering modules.
Utilizing Cy3 immunofluorescent staining of Megi in human pancreatic adenocarcinoma cells in standard medium, there is immunofluorescent staining of Megi (FIG. 6a), which is well-defined at the cell borders indicating surface expression of Megi on the plasma membrane with visibly undetectable levels of Megi in the nucleus. […]

Experiment [3] deals with T1, Megi. Kind of experiment: Immunofluorescent nuclear analyses of Megi translocation (Cy3 with DAPI overlay). The format is cell-based. The conditions noted are these: cells grown in serum-free medium with 150 μM Reg peptide; FIG. 8c, 8f. The source says:
Immunofluorescent analyses of Megi are shown in the upper panels (FIG. 8a, FIG. 8b and FIG. 8c) indicated by the Cy3 immunofluorescent staining of Megi. […] The arrows in FIG. 8a and FIG. 8d delineate the cell borders, whereas the nuclei are shown in light grey contrast in FIG. 8d.
The middle images (FIG. 8b and FIG. 8e) are cells grown in SFM. Megi is localized in the cytoplasm, as indicated by cytoplasmic Cy3 staining. The arrows in FIG. 8b and FIG. 8e show the lack of staining in the position of the nuclei. […] In the lower image (FIG. 80, there is an overlap of Megi-Cy3 staining and nuclear DAPI staining that corroborates that there is nuclear localization of Megi indicated by the arrows in FIG. 8f. In the lower image (FIG. 8f) of cells grown in SFM and Reg peptide, the arrows indicate the position of the nuclei, which now stains for Megi. Scale bar=20 μm in all images.
Immunofluorescent analyses are shown in the upper, panels (FIG. 8a, FIG. 8b and FIG. 8c) indicated by the Cy3 immunofluorescent staining of Megi. […]

A further experiment relates to Megi receptor. The note with it: rat hippocampus; effect abolished by downregulating Megi by shRNA; cited from earlier work.

“SEQ ID NO: 4: 20 amino acid Megi peptide (amino acids 17-36) used as immunogen to raise polyclonal antibodies in rabbits (CKKSIENAKQDLLQLKNVIS)”: the figures for the 50% titer in the experiment with rabbits (rabbit CD 153) and in the experiment on rabbits (rabbit CD 154) were 36,000 and 125,000, respectively. Moreover, the “response to the antigen” value in the experiment with rabbits (rabbits immunised with KLH-conjugated peptide) was “high response”.
“Reg peptide: common Reg peptide sequence (SEQ ID NO: 10) selected from Reg1α, Reg1β, Reg3α and RegIV, synthesized by Bachem (IGLHDPTQGTEPNG)”: the “nuclear levels of Megi (Megi nuclear translocation)” value with Megi [1] is “higher nuclear levels of Megi”. Further, in the experiment with Megi [2], the “cellular staining of Megi” value is listed as “greater expression of Megi inside of the cell”. In the experiment with Megi [3], the “subcellular localization of Megi” value is on record as “translocation of Megi into the nucleus”.

B1: recombinant Reg1α: recombinant regenerating islet-derived 1 alpha protein used by Van Ba on rat hippocampus (protein)
chain: QEAQTELPQARISCPEGTNAYRSYCYYFNEDRETWVDADLYCQNMNSGNLVSVLTQAEGAFVASLIKESGTDDFNVWIGLHDPKKNRRWHWSSGSLVSYKSWGIGAPSSVNPGYCVSLTSSTGFQKWKDVPCEDKFSFVCKFKN
In the case of B1, in the experiment with Megi receptor, the neurite outgrowth entry is reported as “increased neurite outgrowth”.
